Experimental data as given in patent publication US20200231670A1 (AGENSYS, published 2020).

What was measured:
[1] = target: T1, Nectin-1 over-expressed by engineered Rat1(E) cells (UniProt Q15223 31-517, limits assumed); assay: IHC, FFPE Rat1(E) cells expressing Nectin-1
T1 construct: whole, on cells; also called Rat1(E)-Nectin-1; Rat1(E) Nectin1
T1 sequence (looked up): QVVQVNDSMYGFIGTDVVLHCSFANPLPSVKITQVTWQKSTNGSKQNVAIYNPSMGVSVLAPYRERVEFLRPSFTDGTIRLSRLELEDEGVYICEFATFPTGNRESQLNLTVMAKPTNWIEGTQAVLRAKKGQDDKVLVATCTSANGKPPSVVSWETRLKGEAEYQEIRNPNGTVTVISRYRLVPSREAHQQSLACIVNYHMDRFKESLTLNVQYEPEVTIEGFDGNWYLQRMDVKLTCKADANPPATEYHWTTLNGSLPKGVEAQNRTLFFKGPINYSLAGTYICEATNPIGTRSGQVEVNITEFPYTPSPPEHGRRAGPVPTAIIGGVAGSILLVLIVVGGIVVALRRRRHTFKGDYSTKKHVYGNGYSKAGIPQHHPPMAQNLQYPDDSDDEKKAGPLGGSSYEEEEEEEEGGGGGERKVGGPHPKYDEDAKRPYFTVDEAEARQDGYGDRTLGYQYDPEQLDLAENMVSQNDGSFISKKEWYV

[2] = target: T2, recombinant extracellular domain of human Nectin-4 protein (fragment aa 31-346) (human, UniProt Q96NY8 31-346); assay: ELISA
T2 construct: Made in E. coli with a 6xHN tag from a pET vector; The primary screen used aa 31-346; The secondary screen also used a 293FT-made fragment, printed as aa 1-346 in one place and aa 1-348 in another, with a myc-his tag; also called 6xHN-tagged Nectin 4 (aa 31-346); Nectin-4 extracellular domain fragment (amino acid residues 31-346)
T2 sequence: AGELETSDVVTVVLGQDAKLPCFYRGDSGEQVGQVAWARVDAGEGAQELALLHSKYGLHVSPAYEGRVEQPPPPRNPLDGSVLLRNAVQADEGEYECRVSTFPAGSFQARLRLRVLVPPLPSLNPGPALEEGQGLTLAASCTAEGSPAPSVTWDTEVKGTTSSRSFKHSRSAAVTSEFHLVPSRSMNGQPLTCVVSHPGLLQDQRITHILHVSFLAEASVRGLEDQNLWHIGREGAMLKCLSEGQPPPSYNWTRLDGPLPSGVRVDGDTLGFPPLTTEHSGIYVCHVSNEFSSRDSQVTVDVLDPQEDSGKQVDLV

[3] = target: T3, Nectin-4 fragment V (amino acid residues 1-150 of human Nectin-4) (human, UniProt Q96NY8 32-150); assay: Western blot of cell lysates (FIG. 13)
T3 construct: Expressed in transfected cells and tested as a reduced RIPA lysate on a Western blot; Any tag or membrane anchor of the construct is not described; also called V fragment/domain
T3 sequence: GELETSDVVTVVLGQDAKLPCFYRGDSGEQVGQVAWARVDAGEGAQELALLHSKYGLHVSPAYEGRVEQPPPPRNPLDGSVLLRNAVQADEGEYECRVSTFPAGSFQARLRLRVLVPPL
Experimental: The cells expressing various Nectin-4 fragments were cultured and lysed in RIPA buffer. […] A 1:10000 dilution of a-GAPDH antibody (Chicken pAb, Millipore) was used detect GAPDH as a loading control. Antibodies bound to the protein bands were then detected with either 1:5000 dilution of Goat-anti-Mouse antibody conjugated with IRDye 680 (Odyssey) or 1:5000 Donkey anti-a-Chicken conjugated with IRDye 800 (Odyssey) and visualized in Odyssey system.

[4] = target: T4, Nectin-2 over-expressed by engineered Rat1(E) cells (UniProt Q92692 32-538, limits assumed); assay: IHC, FFPE Rat1(E) cells expressing Nectin-2
T4 construct: whole, on cells; also called Rat1(E)-Nectin-2; Rat1(E) Nectin2
T4 sequence (looked up): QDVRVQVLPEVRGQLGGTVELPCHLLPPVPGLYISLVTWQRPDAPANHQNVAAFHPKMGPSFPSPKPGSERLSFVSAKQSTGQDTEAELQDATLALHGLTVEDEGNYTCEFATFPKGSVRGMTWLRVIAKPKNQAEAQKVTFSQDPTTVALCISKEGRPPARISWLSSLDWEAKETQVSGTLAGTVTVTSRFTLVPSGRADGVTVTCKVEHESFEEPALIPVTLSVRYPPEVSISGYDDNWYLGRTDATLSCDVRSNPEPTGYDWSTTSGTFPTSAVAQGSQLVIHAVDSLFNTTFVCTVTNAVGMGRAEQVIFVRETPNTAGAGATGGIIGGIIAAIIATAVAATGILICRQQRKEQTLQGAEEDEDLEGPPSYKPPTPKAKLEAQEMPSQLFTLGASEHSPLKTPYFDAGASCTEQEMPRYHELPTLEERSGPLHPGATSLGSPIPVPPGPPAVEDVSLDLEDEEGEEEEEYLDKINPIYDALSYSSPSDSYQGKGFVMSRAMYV
Experimental: (§1) IHC staining was performed according to the following exemplary protocols. Briefly, an indirect IHC technique was used to detect Nectin-4 in the IHC assay. The samples were fixed in 10% buffered neutral formalin, processed and embedded into paraffin wax, and prepared as 4 μm tissue sections. After deparaffinization and re-hydration, sections were treated for antigen retrieval. The antigen epitopes in Nectin-4 were retrieved, for example, by application of heat to the tissue sections in an aqueous medium, commonly referred to as a Heat-Induced Epitope Retrieval (HIER) procedure. […] The tissue sections bound with primary antibodies were washed and detected with an enzyme-labeled, e.g. peroxidase-labeled, secondary antibody. […] The stained tissue sections were then scanned, imaged, and evaluated with light microscopy, for example, using an Aperio ScanScope CS (Aperio, Vista, Calif.).
(§2) To assess the level of Nectin-4 expression in the tissue sections by the level of antibody staining, stained tissue sections were assessed, evaluated, categorized, and recorded into different categories or scores according to the intensity of the IHC staining and cancer cell positivity ratio. […] Lack of specific staining was recorded as negative (“0” or interchangeably with as “−”).

[5] = target: T5, human Nectin-4 (human, UniProt Q96NY8 32-510); assay: IHC score, FFPE xenograft AG-OV35, 2.5 µg/mL
T5 construct: As expressed in human tumour xenograft tissues, human cell lines (T47D, NCI H322M) and Rat1(E) cells engineered to overexpress Nectin-4; Tested as FFPE sections (IHC) or as reduced lysates (Western blot); also called PVRL4; poliovirus receptor-related protein 4
T5 sequence: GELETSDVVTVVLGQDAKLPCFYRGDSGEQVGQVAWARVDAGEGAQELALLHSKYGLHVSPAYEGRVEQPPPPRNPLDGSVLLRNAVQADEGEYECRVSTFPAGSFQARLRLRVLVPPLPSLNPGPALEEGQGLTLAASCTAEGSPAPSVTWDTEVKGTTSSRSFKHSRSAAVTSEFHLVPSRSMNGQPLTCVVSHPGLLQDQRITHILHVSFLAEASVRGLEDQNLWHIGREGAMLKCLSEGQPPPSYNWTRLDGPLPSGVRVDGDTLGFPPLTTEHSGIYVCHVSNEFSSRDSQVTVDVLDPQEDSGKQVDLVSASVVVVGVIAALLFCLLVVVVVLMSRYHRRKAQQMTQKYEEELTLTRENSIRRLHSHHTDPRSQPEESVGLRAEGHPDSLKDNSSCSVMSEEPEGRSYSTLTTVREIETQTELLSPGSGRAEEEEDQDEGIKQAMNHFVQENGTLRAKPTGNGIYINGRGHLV
Experimental: as §1, §2

binding result [1]: no binding (tested: 2.5 µg/mL) | binding result [2]: binds | binding result [3]: binds | binding result [4]: no binding (tested: 2.5 µg/mL) | binding result [5]: binds
B1: M22-321b41.1 anti-Nectin-4 mouse monoclonal antibody (antibody, mouse IgG2a, kappa, V domains shown)
VH: QVQLQQSGAELARPGASVKLSCKASGYTFTTYWMQWVKQRPGQGLEWIGSIYPGDGDTRYTQKFKGKATLTADKSSSTAYIQLSTLASEDSAVYYCAREYYGLDYWGQGTTLTVSS
VL: DIVMTQAAFSNPVTLGTSASISCRSSKSLLHSNGITYLYWYLQKPGQSPQLLIYHMSNLASGVPDRFTSSGSGTDFTLRISRVEAEDVGVYYCAQNLELPFTFGGGTKLETKR
notes: Mouse IgG2a kappa from hybridoma M22-321b41.1 (ATCC PTA-124245), protein A purified; also called mAb M22-321b41.1; M22-321b1.1
